In assay [1] the test system is luminescent P. aeruginosa serogroup 05 strain (PAO1.lux). The assay can be described thus: Opsonophagocytic killing (OPK) assay, PAO1.lux. The class given is cell-based, Pseudomonas aeruginosa. Conditions: FIG. 11 A-Q. The protocol:
This example describes the evaluation of prioritized human IgG1 antibodies to promote OPK of P. aeruginosa. […] OPK assays were performed as described in (DiGiandomenico, A., et al., Infect Immun 72, 7012-7021 (2004)), with modifications. Briefly, assays were performed in 96-well plates using 0.025 ml of each OPK component; P. aeruginosa strains; diluted baby rabbit serum; differentiated HL-60 cells; and monoclonal antibody. In some OPK assays, luminescent P. aeruginosa strains, which were constructed as described (Choi, K. H., et al., Nat Methods 2, 443-448 (2005)), were used. Luminescent OPK assays were performed as described above but with determination of relative luciferase units (RLUs) using a Perkin Elmer ENVISION Multilabel plate reader (Perkin Elmer).

Assay [2] relates to P. aeruginosa (6077 exoU+; 6206) lysis of rabbit red blood cells. The assay can be described thus: Rabbit red blood cell (RBC) lysis inhibition assay. It counts as cell-based, Pseudomonas aeruginosa. The settings on record: strain 6077; FIG. 12D-E. The protocol: Percent inhibition of cytotoxicity analysis was analysed for the parental V2L2 mAb, mAb166 (positive control) and R347 (negative control), where the antibodies were administered to cultured broncho-epithelial cell line A549 combined with log-phase P. aeruginosa strain 6077 (exoU+) at a MOI of approximately 10. A549 lysis was assayed by measuring released lactate dehydrogenase (LDH) activity and lysis in the presence of mAbs was compared to wells without mAb to determine percent inhibition. The V2L2 mAb, mAb166 (positive control) and R347 (negative control) were evaluated for their ability to prevent lysis of RBCs, where the antibodies were mixed with log-phase P. aeruginosa 6077 (exoU^+) and washed rabbit red blood cells (RBCs) and incubated for 2 hours at 37°. Intact RBCs were pelleted and the extent of lysis determined by measuring the OD405 of the cell-free supernatant. Lysis in the presence of anti-PcrV mAbs was compared to wells without mAb to determine percent inhibition. The positive control antibody, mAb166, is a previously characterized anti-PcrV antibody (J Infect Dis. 186: 64-73 (2002), Crit Care Med. 40: 2320-2326 (2012)).

The test system of assay [3] is P. aeruginosa strains (PAO1, 33356, 6294, 6077, 6206, PA103A). The assay can be described thus: Acute pneumonia model in mice, survival. It counts as in vivo, Pseudomonas aeruginosa. The settings on record: strain 6077 (1×10^6 CFU/animal) intranasal; mAbs IP 24 hours prior; 11A6, 3G5, V2L7 5 or 1 mg/kg, 29D2 and V2L2 25 mg/kg; FIG. 13E-G. The protocol:
Antibodies or PBS were administered 24 hours before infection in each model. P. aeruginosa acute pneumonia, keratitis, and thermal injury infection models were performed as described (DiGiandomenico, A., et al., Proc Natl Acad Sci USA 104, 4624-4629 (2007)), with modifications. In the acute pneumonia model, BALB/c mice (The Jackson Laboratory) were infected with P. aeruginosa strains suspended in a 0.05 ml inoculum. In the thermal injury model, CF-1 mice (Charles River) received a 10% total body surface area burn with a metal brand heated to 92° C. for 10 seconds. Animals were infected subcutaneously with P. aeruginosa strain 6077 at the indicated dose. For organ burden experiments, acute pneumonia was induced in mice followed by harvesting of lungs, spleens, and kidneys 24 hours post-infection for determination of CFU.
The in vivo effect of administration of an anti-PcrV antibodies was studied in mice using an acute pneumonia model. Groups of mice were treated with either increasing concentrations of the V2L2 antibody, a positive control anti-PcrV antibody (mAb166), or a negative control (R347), as shown in FIG. 13 (A-B). Groups of mice were also treated with either increasing concentrations of the V2L2 antibody, the PcrV antibody PcrV-02, or a negative control (R347), as shown in FIG. 13 (C-D). Twenty-four hours after treatment, all mice were infected with 5×10^7 CFU (C) Pseudomonas aeruginosa 6294 (06) or (D) PA103A (O11).
Groups of mice were treated with either increasing concentrations of the 11A6, 3G5 or V2L7, the same concentrations of 29D2, 1F3, 1E6, V2L2, LE10, SH3, 4A8, 2H3, or 21F1, increasing concentrations of the 29D2, increasing concentrations of the V2L2, the PcrV antibody PcrV-02, or a negative control (R347), as shown in FIG. 13 (E-H). Mice were injected intraperitoneally (IP) with mAbs 24 hours prior to intranasal infection with Pseudomonas strain 6077 (1×10^6 CFU/animal).

B1: Psl0225: lead optimized anti-Psl clone; VH SEQ ID NO:290, VL SEQ ID NO:291 (antibody, V domains shown)
VH: QVQLQESGPGLVKPSETLSLTCTVSGGSISPYYWTWIRQPPGKGLELIGYIHSSGYTDYNPSLKSRVTISGDTSKKQFSLKLSSVTAADTAVYYCARAMDIEPHALDIWGQGTMVTVSS
VL: DIQLTQSPSSLSASVGDRVTITCRASQSIRSHLNWYQQKPGKAPKLLIYGASNLQSGVPSRFSGSGSGTDFTLTISSLQPEDFATYYCQQSDDGFPNFGGGTKVEIK
modifications: Psl0225-Germline VH; Psl0225-Germline VL
In the case of B1, in assay [1], the “OPK activity of lead optimized anti-Psl mAbs” value (“OPK activity” for short) is recorded as “enhanced OPK activity”.

B2: Psl0337: lead optimized anti-Psl clone; VH SEQ ID NO:295, VL SEQ ID NO:296 (antibody, V domains shown)
VH: QVQLQESGPGLVKPSETLSLTCTVSGGSISPYYWTWIRQPPGKGLELIGYIHSSGYTDYNPSLKSRVTISGDTSKKQFSLKLSSVTAADTAVYYCARADWDHKHALDIWGQGTMVTVSS
VL: DIQLTQSPSSLSASVGDRVTITCRASQSIRSHLNWYQQKPGKAPKLLIYGASNLQSGVPSRFSGSGSGTDFTLTISSLQPEDFATYYCQDSSSWPLTFGGGTKVEIK
modifications: Psl0337-Germline VH; Psl0337-Germline VL
Turning to B2, in assay [1], the “OPK activity” value is listed as “enhanced OPK activity”.

B3: Psl0588: lead optimized anti-Psl clone; VH SEQ ID NO:292, VL SEQ ID NO:293 (antibody, V domains shown)
VH: QVQLQESGPGLVKPSETLSLTCTVSGGSISPYYWTWIRQPPGKGLELIGYIHSSGYTDYNPSLKSRVTISGDTSKKQFSLKLSSVTAADTAVYYCARADDPFPGYLDIWGQGTMVTVSS
VL: DIQLTQSPSSLSASVGDRVTITCRASQSIRSHLNWYQQKPGKAPKLLIYGASNLQSGVPSRFSGSGSGTDFTLTISSLQPEDFATYYCQQSDTFPLKFGGGTKVEIK
modifications: Psl0588-Germline VH
In the case of B3, in assay [1], the “OPK activity” value is listed as “enhanced OPK activity”.

B4: V2L2-GL: V2L2-germlined mAb (antibody, V domains shown)
VH: EVQLLESGGGLVQPGGSLRLSCAASGFTFSSYAMNWVRQAPGKGLEWVSAITISGITAYYTDSVKGRFTISRDNSKNTLYLQMNSLRAEDTAVYYCAKEEFLPGTHYYYGMDVWGQGTTVTVSS
VL: AIQMTQSPSSLSASVGDRVTITCRASQGIRNDLGWYQQKPGKAPKLVIYSASTLQSGVPSRFSGSGSGTDFTLSISSLQPDDFATYYCLQDYNYPWTFGQGTKVEIK
modifications: V2L2-GL VH; V2L2-MD and V2L2-GL VL
notes: V2L2-germlined mAb
In the case of B4, the “prevention of RBC lysis” value in assay [2] is “demonstrated prevention of RBC lysis”.

B5: 29D2: anti-PcrV mAb, epitope class 3 (antibody, V domains shown)
VH: EVQLLESGGGLVQPGGSLRLSCAASGFTFSSYAMSWVRQAPGKGLEWVSAISGSGYSTYYADSVKGRFTMSRDNSKNTLYLQMNSLRAEDTAVYYCAAEYSISSNYYYGMDVWGQGTTVTVSS
VL: DIQLTQSPSFLSASVGDRVTITCWASQGISSYLAWYQQKPGKAPKLLIYAASTLQSGVPSRFSGSGSGTEFTLTISSLQPEDFATYYCQQLNSSPLTFGGGTKVEIK
modifications: 29D2 VH; 29D2 VL
Consider B5, for which, in assay [2], the “prevention of RBC lysis” value is “demonstrated prevention of RBC lysis”. Also, the protection in vivo entry in assay [3] is recorded as “provides protection in vivo”.
